The values below come from patent US20200339694A1 (CYTOMX THERAPEUTICS, published 2020).

The assay concerns the target T1, Av1 antibody.
T1 construct: also called parental AV1 antibody; anti-IL6R antibody
The assay is described as follows: FACS of the peptide displayed on cells.

T1 sequence (heavy, as listed by the source, chain 1 of 2): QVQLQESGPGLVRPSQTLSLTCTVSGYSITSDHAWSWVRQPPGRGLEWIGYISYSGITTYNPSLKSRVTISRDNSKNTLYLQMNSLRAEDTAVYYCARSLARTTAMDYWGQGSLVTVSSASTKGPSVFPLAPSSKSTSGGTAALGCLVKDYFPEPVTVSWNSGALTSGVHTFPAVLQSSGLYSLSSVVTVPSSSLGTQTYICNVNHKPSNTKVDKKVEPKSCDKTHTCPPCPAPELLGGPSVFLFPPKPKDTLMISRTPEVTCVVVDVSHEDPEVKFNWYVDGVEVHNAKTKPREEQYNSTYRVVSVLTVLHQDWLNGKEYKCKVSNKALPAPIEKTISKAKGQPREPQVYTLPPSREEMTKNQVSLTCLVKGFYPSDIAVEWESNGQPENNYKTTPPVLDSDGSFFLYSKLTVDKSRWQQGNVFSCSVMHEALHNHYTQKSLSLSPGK
T1 sequence (light, as listed by the source, chain 2 of 2): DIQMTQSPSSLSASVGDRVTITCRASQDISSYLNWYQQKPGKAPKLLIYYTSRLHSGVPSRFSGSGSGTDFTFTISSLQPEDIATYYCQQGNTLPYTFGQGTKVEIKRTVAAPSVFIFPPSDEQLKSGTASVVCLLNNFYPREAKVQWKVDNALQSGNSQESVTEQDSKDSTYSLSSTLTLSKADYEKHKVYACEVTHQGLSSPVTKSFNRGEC

For YRSCNWNYVSIFLDC (also called 4278; parental peptide) [Peptide 1 (SEQ ID NO: 33)], the binding result is given as “binds”.

For PGAFDIPFPAHWVPNT (also called 4280; parental peptide) [Peptide 2 (SEQ ID NO: 34)], the binding result is “binds”.
